According to patent publication US20070021348:

Target: human APP isoform 695 (in SH-SY5Y APP695 cells), P05067
Sequence (P05067 whole entry, looked up, canonical isoform): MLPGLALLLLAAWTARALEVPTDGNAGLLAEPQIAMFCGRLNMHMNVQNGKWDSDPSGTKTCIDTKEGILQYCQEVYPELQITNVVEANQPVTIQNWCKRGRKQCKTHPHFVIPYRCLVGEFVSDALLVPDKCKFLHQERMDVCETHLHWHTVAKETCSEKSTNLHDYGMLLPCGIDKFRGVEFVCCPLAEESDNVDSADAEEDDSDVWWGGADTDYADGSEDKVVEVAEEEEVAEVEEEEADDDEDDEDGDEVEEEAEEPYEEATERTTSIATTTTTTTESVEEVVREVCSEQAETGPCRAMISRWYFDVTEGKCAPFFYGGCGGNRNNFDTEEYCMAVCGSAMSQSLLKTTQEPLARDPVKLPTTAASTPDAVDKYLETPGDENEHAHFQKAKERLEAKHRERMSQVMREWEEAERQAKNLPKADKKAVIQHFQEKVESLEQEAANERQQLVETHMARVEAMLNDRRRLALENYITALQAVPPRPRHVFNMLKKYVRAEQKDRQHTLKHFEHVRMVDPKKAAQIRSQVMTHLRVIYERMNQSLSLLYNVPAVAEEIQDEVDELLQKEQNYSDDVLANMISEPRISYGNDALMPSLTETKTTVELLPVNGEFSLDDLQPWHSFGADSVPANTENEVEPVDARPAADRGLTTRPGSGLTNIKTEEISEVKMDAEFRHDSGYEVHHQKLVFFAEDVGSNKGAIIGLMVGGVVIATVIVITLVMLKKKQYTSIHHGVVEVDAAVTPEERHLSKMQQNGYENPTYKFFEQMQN

B1: Asp 2 (transiently expressed from pcDNA3.1aMycHis) (protein)
chain: ETDEEPEEPGRRGSFVEMVDNLRGKSGQGYYVEMTVGSPPQTLNILVDTGSSNFAVGAAPHPFLHRYYQRQLSSTYRDLRKGVYVPYTQGKWEGELGTDLVSIPHGPNVTVRANIAAITESDKFFINGSNWEGILGLAYAEIARPDDSLEPFFDSLVKQTHVPNLFSLQLCGAGFPLNQSEVLASVGGSMIIGGIDHSLYTGSLWYTPIRREWYYEVIIVRVEINGQDLKMDCKEYNYDKSIVDSGTTNLRLPKKVFEAAVKSIKAASSTEKFPDGFWLGEQLVCWQAGTTPWNIFPVISLYLMGEVTNQSFRITILPQQYLRPVEDVATSQDDCYKFAISQSSTGTVMGAVIMEGFYVVFDRARKRIGFAVSACHVHDEFRTAAVEGPFVTLDMEDCGYNIPQTDESTLMTIAYVMAAICALFMLPLCLMVCQWRCLRCLRQQHDDFADDISLLK
sAPPβ (110 kDa) in media, Western blot: An increase in sAPPβ (110 kDa) was observed in the media from Asp 2 transfected cells compared to empty vector pcDNA3.1MycHis transfected control cells

B2: Asp 2 active site mutant D93N (protein)
chain: ETDEEPEEPGRRGSFVEMVDNLRGKSGQGYYVEMTVGSPPQTLNILVNTGSSNFAVGAAPHPFLHRYYQRQLSSTYRDLRKGVYVPYTQGKWEGELGTDLVSIPHGPNVTVRANIAAITESDKFFINGSNWEGILGLAYAEIARPDDSLEPFFDSLVKQTHVPNLFSLQLCGAGFPLNQSEVLASVGGSMIIGGIDHSLYTGSLWYTPIRREWYYEVIIVRVEINGQDLKMDCKEYNYDKSIVDSGTTNLRLPKKVFEAAVKSIKAASSTEKFPDGFWLGEQLVCWQAGTTPWNIFPVISLYLMGEVTNQSFRITILPQQYLRPVEDVATSQDDCYKFAISQSSTGTVMGAVIMEGFYVVFDRARKRIGFAVSACHVHDEFRTAAVEGPFVTLDMEDCGYNIPQTDESTLMTIAYVMAAICALFMLPLCLMVCQWRCLRCLRQQHDDFADDISLLK
sAPPβ in media, Western blot: There was no increase in sAPPβ secreted from cells transfected with either of the Asp-Asn mutants D93N or D289N

B3: Asp 2 active site mutant D289N (protein)
chain: ETDEEPEEPGRRGSFVEMVDNLRGKSGQGYYVEMTVGSPPQTLNILVDTGSSNFAVGAAPHPFLHRYYQRQLSSTYRDLRKGVYVPYTQGKWEGELGTDLVSIPHGPNVTVRANIAAITESDKFFINGSNWEGILGLAYAEIARPDDSLEPFFDSLVKQTHVPNLFSLQLCGAGFPLNQSEVLASVGGSMIIGGIDHSLYTGSLWYTPIRREWYYEVIIVRVEINGQDLKMDCKEYNYDKSIVNSGTTNLRLPKKVFEAAVKSIKAASSTEKFPDGFWLGEQLVCWQAGTTPWNIFPVISLYLMGEVTNQSFRITILPQQYLRPVEDVATSQDDCYKFAISQSSTGTVMGAVIMEGFYVVFDRARKRIGFAVSACHVHDEFRTAAVEGPFVTLDMEDCGYNIPQTDESTLMTIAYVMAAICALFMLPLCLMVCQWRCLRCLRQQHDDFADDISLLK
sAPPβ in media, Western blot: There was no increase in sAPPβ secreted from cells transfected with either of the Asp-Asn mutants D93N or D289N
